For experiment [1], the target named is negative unrelated control protein. Kind of experiment: ELISA, negative control antigen.
Experiment [2] concerns the target T1, CD18 on HEK293-CD18 cells (UniProt P05107 23-769).
T1 construct: whole, on cells; also called negative control protein CD18
Briefly: immunofluorescent staining of transfected HEK293 cells.

T1 sequence (P05107 23-769 limits assumed): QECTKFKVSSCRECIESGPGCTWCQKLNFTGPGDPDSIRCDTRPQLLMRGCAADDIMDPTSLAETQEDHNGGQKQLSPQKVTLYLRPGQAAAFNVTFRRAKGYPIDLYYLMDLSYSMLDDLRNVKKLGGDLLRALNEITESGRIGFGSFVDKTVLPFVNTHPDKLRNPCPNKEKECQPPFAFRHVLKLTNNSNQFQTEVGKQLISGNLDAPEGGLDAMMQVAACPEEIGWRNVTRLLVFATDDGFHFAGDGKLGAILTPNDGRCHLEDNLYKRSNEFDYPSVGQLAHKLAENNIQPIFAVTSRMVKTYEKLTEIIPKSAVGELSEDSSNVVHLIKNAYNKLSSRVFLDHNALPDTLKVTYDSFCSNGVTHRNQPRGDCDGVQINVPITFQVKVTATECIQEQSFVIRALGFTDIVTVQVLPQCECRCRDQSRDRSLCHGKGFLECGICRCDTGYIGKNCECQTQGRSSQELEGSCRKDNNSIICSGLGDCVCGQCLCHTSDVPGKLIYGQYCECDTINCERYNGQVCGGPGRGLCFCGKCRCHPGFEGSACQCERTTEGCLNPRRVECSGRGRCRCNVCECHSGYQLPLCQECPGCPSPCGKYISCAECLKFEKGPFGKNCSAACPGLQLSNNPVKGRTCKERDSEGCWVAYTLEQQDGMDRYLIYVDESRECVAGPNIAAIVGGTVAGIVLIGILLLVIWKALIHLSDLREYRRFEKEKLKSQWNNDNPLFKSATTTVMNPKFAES

B1: mouse monoclonal anti-human CD37 antibody, clone 2B8D12 (antibody, IgG1, V domains shown)
VH: QVKLDETGGGLVQPGRPMKLSCVASGFTFSDYWMNWVRQSPEKGLEWVAQIRDKPYNYETFYSDSVKGRFTISRDDSKSSVYLQMNNLGAEDMGIYYCTGSFAYWGQGTLVTVSA
VL: DIQMTQSPASLSASEGETVTITCRASGNIHNYLAWYQQKQGKSPQLLVYNAKTLPDGVPSRVSGSGSGTQYSLKINNLQPEDFGNYYCQQYWSTPYTFGGGSRLEIKR
notes: Mouse hybridoma antibody; also called antibody CD37; CD37 antibody (2B8D12)
In turn, B1 showed an OD405 in experiment [1] of 0.098 OD405. Moreover, the binding result in experiment [2] was “no binding”.

Values taken from patent US20210340271A1 (PROMAB BIOTECHNOLOGIES, published 2021).
